Experimental data reported in patent publication US5849493, “Screening assay for compounds stimulating somatostatin transcription factor -1 binding to an STF-1 binding site” (Research Development Foundation, dated 1997).

B1: GST-Isl1 H.D. fusion protein (other)
chain: KQPEKTTRVRTVLNEKQLHTLRTCYAANPRPDALMKEQLVEMTGLSPRVIRVWFQNKRCKDKKRSIMMKQLQQ
B2: GST-cdx3 H.D. fusion protein (other)
chain: PPGPAATGAAEQLSPSGQRRNLCEWMRKPAQPSLGSQVKTRTKDKYRVVYTDHQRLELEKEFHYSRYITIRRKAELAATLGLSERQVKIWFQNRRAKERKINKKKLQQQQQ
B3: GST-PBX interaction motif-cdx3 fusion protein (other)
chain: EEPSRVHLPFPWMKSTKAHAWKSQWAGGALGSQVKTRTKDKYRVVYTDHQRLELEKEFHYSRYITIRRKAELAATLGLSERQVKIWFQNRRAKERKINKKKLQQQQQ
B4: STF-1 homeodomain polypeptide Hox 140-215 (other)
chain: not shown
B5: GST-PBX interaction motif-Isl1 H.D. fusion protein (other)
chain: EEPSRVHLPFPWMKSTKAHAWKSQWAGGAKQPEKTTRVRTVLNEKQLHTLRTCYAANPRPDALMKEQLVEMTGLSPRVIRVWFQNKRCKDKKRSIMMKQLQQ

Legend:
[1] = target: T1, Pbx1, in vitro translated protein (human, UniProt P40424); experiment: gel mobility shift, TSEII probe, reticulocyte lysate programmed with PBX RNA
Excerpt: Isl1 H.D., homeodomain of the lim domain factor Isl1. PBX interaction motif-Isl1 H.D., STF-1-Isl1 fusion protein containing STF-1 PBX interaction motif region (amino acid residues 110–138) fused to the Isl1 homeodomain. cdx3 H.D., homeodomain of the pancreatic homeobox protein cdx3 (amino acid residues 143–253). PBX interaction motif-cdx3, fusion protein containing STF-1 PBX interaction motif region (amino acid residues 110–138) fused to the cdx3 homeodomain (amino acid residues 176–253). PBX interaction motif-STF-1, STF-1 polypeptide containing the PBX interaction motif region (110–138) fused to the STF-1 homeodomain (amino acid residues 140–215). STF-1 H.D. STF-1 homeodomain alone without the PBX interaction motif region. […] Cooperativity with PBX tested with homeodomain fusion proteins shown over each lane. Monomeric and heterodimeric complexes as labeled.
(§1) Gel mobility shift assays were performed exactly as described previously (20) using 0.1 ng of end-labeled double stranded oligonucleotide whose sequences are presented in FIG. 2C. For off-rate analysis, the TSEII probe was first incubated with the proteins at room temperature for 30 minutes, then a 1000-fold excess of unlabeled TSEII oligonucleotide was added and aliquots were loaded at various time points on a running gel. In supershift assays, TU6 nuclear cell extract was preincubated with 1 µl of Pbx (11) or STF-antiserum (20) for 15 minutes at room temperature before adding the TSEII probe.

[2] = target: T1, Pbx1, in vitro translated protein; experiment: gel mobility shift, TSEII probe
Protocol: Deletion endpoints in mutant STF-1 polypeptides are indicated over each lane. For example, Δ1-70 indicates STF-1 polypeptide lacking residues 1–70. Hox 140–215, STF-1 homeodomain polypeptide. […] H.D., STF-1 homeodomain (amino acid residues 140–215). Full length STF-1 protein extends from amino acid residues 1–284.
as §1

Binder	binding result [1]	binding result [2]
B1	no binding	
B2	no binding	
B3	no binding	
B4		no binding
B5	no binding	
